B1: 22131 (protein)
chain: MALPVTALLLPLALLLHAARPACEVQLLESGGGLIQPGGSLRLSCAASGFTFSSHAMTWVRQAPGKGLEWVSAISGSGDYTHYADSVKGRFTISRDNSKNTVYLQMNSLRAEDSAVYYCAKDEDGGSLLGHRGQGTLVTVSSGTGGGGSGGGGSGGGGSEFDIQMTQSPSSLSASVGDRVTITCKASDHINNWLAWYQQKPGQAPKLLIYGATTLETGVPSRFSGSGSGTDYTLTISSLQPEDFATYYCQQSWNTPWTFGQGTKLEIKRLEDLKNVFPPEVAVFEPSKAEIAHTQKATLVCLATGFYPDHVELSWWVNGKEVHSGVCTDPQPLKEQPALNDSRYCLSSRLRVSATFWQNPRNHFRCQVQFYGLSENDEWTQDRAKPVTQIVSAEAWGRADCGITSASYHQGVLSATILYEILLGKATLYAVLVSALVLMAMVKRKDSRGRAKRSGSGATNFSLLKQAGDVEENPGPTSATMDWIWRILFLVGAATGAHSGPQVQLQESGGGLAQAGGSLRLSCAASGRTFSMGWFRQAPGKEREFVAAITYSGGSPYYASSVRGRFTISRDNAKNTVYLQMNSLKPEDTAVYYCAANPTYGSDWNAENWGQGTQVTVSSGSGGGGSGGGGSGGGGSFEQVQLQQPGAELVKPGASVKMSCKASGYAFSSYWINWMKQKPGQGLEWIGQIYPGDGDTNYNGKFKGRATLTADTSSSTAYMQLSSLTSEDSAVYFCARSITTVVGCAMDYWGQGTSVTVSSTRIQNPDPAVYQLRDSKSSDKSVCLFTDFDSQTNVSQSKDSDVYITDKCVLDMRSMDFKSNSAVAWSNKSDFACANAFNNSIIPEDTFFPSSDVPCDVKLVEKSFETDTNLNFQNLSVIGFRILLLKVAGFNLLMTLRLWSSRAKRSGSGVKQTLNFDLLKLAGDVESNPGPSRGHMTEYKPTVRLATRDDVPRAVRTLAAAFADYPATRHTVDPDRHIERVTELQELFLTRVGLDIGKVWVADDGAAVAVWTTPESVEAGAVFAEIGPRMAELSGSRLAAQQQMEGLLAPHRPKEPAWFLATVGVSPDHQGKGLGSAVVLPGVEAAERAGVPAFLETSAPRNLPFYERLGFTVTADVEVPEGPRTWCMTRKPGA
B2: 22215 (protein)
chain: MALPVTALLLPLALLLHAARPACPYINIYNAEPANPSEKNSPTQYAYGTGAVVRGAEFDIQMTQSPSSLSASVGDRVTITCKASDHINNWLAWYQQKPGQAPKLLIYGATTLETGVPSRFSGSGSGTDYTLTISSLQPEDFATYYCQQSWNTPWTFGQGTKLEIKRLEDLKNVFPPEVAVFEPSKAEIAHTQKATLVCLATGFYPDHVELSWWVNGKEVHSGVCTDPQPLKEQPALNDSRYCLSSRLRVSATFWQNPRNHFRCQVQFYGLSENDEWTQDRAKPVTQIVSAEAWGRADCGITSASYHQGVLSATILYEILLGKATLYAVLVSALVLMAMVKRKDSRGRAKRSGSGATNFSLLKQAGDVEENPGPTSATMDWIWRILFLVGAATGAHSGPQVQLQESGGGLAQAGGSLRLSCAASGRTFSMGWFRQAPGKEREFVAAITYSGGSPYYASSVRGRFTISRDNAKNTVYLQMNSLKPEDTAVYYCAANPTYGSDWNAENWGQGTQVTVSSGSGGGGSGGGGSGGGGSFEQVQLQQPGAELVKPGASVKMSCKASGYAFSSYWINWMKQKPGQGLEWIGQIYPGDGDTNYNGKFKGRATLTADTSSSTAYMQLSSLTSEDSAVYFCARSITTVVGCAMDYWGQGTSVTVSSTRIQNPDPAVYQLRDSKSSDKSVCLFTDFDSQTNVSQSKDSDVYITDKCVLDMRSMDFKSNSAVAWSNKSDFACANAFNNSIIPEDTFFPSSDVPCDVKLVEKSFETDTNLNFQNLSVIGFRILLLKVAGFNLLMTLRLWSSRAKRSGSGVKQTLNFDLLKLAGDVESNPGPSRGHMTEYKPTVRLATRDDVPRAVRTLAAAFADYPATRHTVDPDRHIERVTELQELFLTRVGLDIGKVWVADDGAAVAVWTTPESVEAGAVFAEIGPRMAELSGSRLAAQQQMEGLLAPHRPKEPAWFLATVGVSPDHQGKGLGSAVVLPGVEAAERAGVPAFLETSAPRNLPFYERLGFTVTADVEVPEGPRTWCMTRKPGA
B3: CD8SP-BCMA-FHVH-93-G4S-TCR-Vg9-F-P2A-IgHSP-CD20-vHH2-HCD25-G4S-TCR-Vd2-F-F2A-PAC (protein)
chain: MALPVTALLLPLALLLHAARPACEVQLLESGGGLIQPGGSLRLSCAASGFTFSSHAMTWVRQAPGKGLEWVSAISGSGDYTHYADSVKGRFTISRDNSKNTVYLQMNSLRAEDSAVYYCAKDEDGGSLLGHRGQGTLVTVSSGTGGGGSGGGGSGGGGSEFAGHLEQPQISSTKTLSKTARLECVVSGITISATSVYWYRERPGEVIQFLVSISYDGTVRKESGIPSGKFEVDRIPETSTSTLTIHNVEKQDIATYYCALWEAQQELGKKIKVFGPGTKLIITDKQLDKQLDADVSPKPTIFLPSIAETKLQKAGTYLCLLEKFFPDVIKIHWQEKKSNTILGSQEGNTMKTNDTYMKFSWLTVPEKSLDKEHRCIVRHENNKNGVDQEIIFPPIKTDVITMDPKDNCSKDANDTLLLQLTNTSAYYMYLLLLLKSVVYFAIITCCLLRRTAFCCNGEKSRAKRSGSGATNFSLLKQAGDVEENPGPTSATMDWIWRILFLVGAATGAHSGPQVQLQESGGGLAQAGGSLRLSCAASGRTFSMGWFRQAPGKEREFVAAITYSGGSPYYASSVRGRFTISRDNAKNTVYLQMNSLKPEDTAVYYCAANPTYGSDWNAENWGQGTQVTVSSGSGGGGSGGGGSGGGGSFEAIELVPEHQTVPVSIGVPATLRCSMKGEAIGNYYINWYRKTQGNTMTFIYREKDIYGPGFKDNFQGDIDIAKNLAVLKILAPSERDEGSYYCACDTLGMGGEYTDKLIFGKGTRVTVEPRSQPHTKPSVFVMKNGTNVACLVKEFYPKDIRINLVSSKKITEFDPAIVISPSGKYNAVKLGKYEDSNSVTCSVQHDNKTVHSTDFEVKTDSTDHVKPKETENTKQPSKSCHKPKAIVHTEKVNMMSLTVLGLRMLFAKTVAVNFLLTAKLFFLRAKRSGSGVKQTLNFDLLKLAGDVESNPGPSRAHMTEYKPTVRLATRDDVPRAVRTLAAAFADYPATRHTVDPDRHIERVTELQELFLTRVGLDIGKVWVADDGAAVAVWTTPESVEAGAVFAEIGPRMAELSGSRLAAQQQMEGLLAPHRPKEPAWFLATVGVSPDHQGKGLGSAVVLPGVEAAERAGVPAFLETSAPRNLPFYERLGFTVTADVEVPEGPRTWCMTRKPGA

Experiments:
Assay type in all cases: cell-based
RAJI cells = assay: JNG assay, co-culture with RAJI cells; details: for NFAT-GFP ASSAY: Raji: JNG cells expressing construct, co-culture with Raji
How it was run: (§1)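 Read-out is NFAT-driven GFP measured by flow cytometry after ~4–18 h co-culture of SAR-expressing JNG cells with target cells (E:T about 1:2). SARs were introduced by lentiviral spinfection and selected with puromycin or blasticidin when possible; scores (+/- to 5+ ≈ 5–50% GFP+) are relative to parental JNG cells.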

RAJI-CD19-KO cells = assay: JNG assay, co-culture with RAJI-CD19-KO cells; details: for NFAT-GFP ASSAY: Raji-CD19-KO: co-culture with Raji-CD19-KO
Protocol: Cellular supernatant is collected and assayed for the induction of cytokines (e.g., IL2).
JNG (Jurkat cells expressing EGFP under an NFAT promoter) were infected with lentiviral vectors encoding different single chain and multi-chain SARs by spinfection in the presence of 8 µg/ml of Polybrene® (Sigma, Catalog no. H9268). The Jurkat-NFAT-GFP cells are engineered in such a way that the IL-2 promoter, which carries NFAT binding sites, is cloned upstream of the GFP gene. These cells have been used to study signaling via TCR and CAR. The different SARs were stably expressed in Jurkat NFAT-GFP cells by lentiviral mediated gene transfer, followed by selection with puromycin or blasticidin. No drug selection was used in case the construct lacked an antibiotic resistance gene. The SAR-expressing Jurkat-NFAT-GFP cells were cocultured with the target cells at E:T ratio of approximately 1:2 for approximately 4 hours to 18 hours. When the interaction between SIRs and their target antigen results in activation of the NFAT pathway, GFP expression is induced. […] GFP expression was monitored by FACS analysis. The Jurkat-NFAT-GFP (parental) cells were used as control. The structure of different constructs can be determined based on their names. […] The sequence of the other constructs in the table can be similarly determined from their names and by referring to the different Tables of this disclosure that provide the names and SEQ ID NO of the different modules. Alternatively, the composition and modular architecture of the different SAR constructs can be determined from their sequences by bioinformatics tools, including using nucleic acid and amino acids homology searches. A SAR is considered positive in the assay in case the SAR expressing Jurkat-NFAT-GFP cells show greater % GFP positive cells when cultured with the target cell line as compared to parental Jurkat-NFAT-GFP cells. […] In general, the number +/-, +, 2+, 3+, 4+, 5+ refer to approximately 5%, 10%, 20%, 30%, 40% and 50% GFP positive cells. The % of GFP induction in the above assay is dependent not only the relative strength of the SAR but also, among other factors, on the relative level of expression of the SAR in the JNG cells and the relative level of expression of the target antigen in the target cell line. To control for the difference in gene transduction efficiency of the different SAR constructs, the experiment was conducted with JNG cells transduced with SAR constructs co-expressing a drug resistance gene (e.g., puromycin or PAC) followed by drug selection to generate a stable population of SAR-expressing cells. It is to be noted that the drug resistance gene (e.g., PAC) in the SAR constructs is optional and in vivo studies were conducted with SAR constructs lacking the PAC gene.

L363 cells = assay: JNG assay, co-culture with L363 cells
How it was run: as §1

| Molecule | NFAT-GFP ASSAY: Raji (RAJI cells) | NFAT-GFP ASSAY: Raji-CD19-KO (RAJI-CD19-KO cells) | NFAT-GFP ASSAY: L363 (L363 cells; co-culture with L363) | GFP induction / activity (RAJI cells; co-culture with RAJI cells) | GFP induction / activity (RAJI-CD19-KO cells; co-culture with RAJI-CD19-KO cells) | GFP induction / activity (L363 cells; co-culture with L363 cells) |
| --- | --- | --- | --- | --- | --- | --- |
| B1 | 4+ (refer to approximately 5%, 10%, 20%, 30%, 40% and 50% GFP positive cells) | 5+ (refer to approximately 5%, 10%, 20%, 30%, 40% and 50% GFP positive cells) | 5+ (refer to approximately 5%, 10%, 20%, 30%, 40% and 50% GFP positive cells) | – | – | – |
| B2 | Raji (3+), Raji-CD19-KO (3+) (refer to approximately 5%, 10%, 20%, 30%, 40% and 50% GFP positive cells) | Raji (3+), Raji-CD19-KO (3+) (refer to approximately 5%, 10%, 20%, 30%, 40% and 50% GFP positive cells) | – | – | – | – |
| B3 | – | – | – | robust induction of GFP | robust induction of GFP | robust induction of GFP |
